Test [1] deals with T1, CD99 endogenously expressed on cells (Jurkat, KOPT-K1) (UniProt P14209 23-185, O-linked glycosylation (natural, on cells)).
T1 chain: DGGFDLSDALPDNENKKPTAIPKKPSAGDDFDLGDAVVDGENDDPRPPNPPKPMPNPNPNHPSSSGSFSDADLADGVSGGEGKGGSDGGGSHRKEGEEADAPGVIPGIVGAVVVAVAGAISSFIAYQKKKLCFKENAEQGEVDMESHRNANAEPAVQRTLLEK
The experiment in a line: cell binding; apparent KD; nM molecule.

Test [2] has as its target T1, CD99 endogenously expressed on cells …. In words: cell binding; apparent KD; nM Fv.
Test [3] has the same target. In words: cell binding; apparent KD; nM molecule; avid.
Test [4] has the same target. In words: cell binding; apparent KD; nM Fv; avid.
Test [5] concerns the target T2, SUMO-CD99 fusion protein (SUMO fused with the extracellular domain of CD99, residues 23-122) (UniProt P14209 23-122, biotin on the AviTag (BirA, in vitro)).
T2 chain: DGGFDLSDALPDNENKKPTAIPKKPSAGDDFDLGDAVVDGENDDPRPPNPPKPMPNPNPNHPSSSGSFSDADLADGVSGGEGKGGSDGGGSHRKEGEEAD
In words: bead-based titration (flow cytometry); apparent KD, nM Fv, scFv-Fc. For orientation: Flow cytometry measures light scatter and fluorescence of single cells or particles in a stream.

B1: 10A1 Fab (Fab, V domains shown)
VH: QVQLQQSGPVLVKPSQTLSLTCAISGDSISSDTTAWSWIRRSPSRGLEWLGWTYYRSKWFNYYAVSVKGRVTINPDTSKNQFSLQLSSVTPEDTAVYYCARGNGNGGMDVWGQGTTVTVSS
VL: SYVLTQPASASVSPGQTARITCSGDALPKQYAYWYQQKPGQAPVLVIFKDSERPSGVPERFSGSSSGTTVTLTISGAQAEDEADYYCQSVDNSGFYQVFGGGTQLTVL
Take B1: the Kd in test [1] and in test [2] was more than 250 nM throughout.

B2: 10A1 IgG-E345R (antibody)
heavy: QVQLQQSGPVLVKPSQTLSLTCAISGDSISSDTTAWSWIRRSPSRGLEWLGWTYYRSKWFNYYAVSVKGRVTINPDTSKNQFSLQLSSVTPEDTAVYYCARGNGNGGMDVWGQGTTVTVSSASTKGPSVFPLAPSSKSTSGGTAALGCLVKDYFPEPVTVSWNSGALTSGVHTFPAVLQSSGLYSLSSVVTVPSSSLGTQTYICNVNHKPSNTKVDKKVEPKSCDKTHTCPPCPAPEAAGGPSVFLFPPKPKDTLMISRTPEVTCVVVDVSHEDPEVKFNWYVDGVEVHNAKTKPREEQYNSTYRVVSVLTVLHQDWLNGKEYKCKVSNKALGAPIEKTISKAKGQPRRPQVYTLPPSREEMTKNQVSLTCLVKGFYPSDIAVEWESNGQPENNYKTTPPVLDSDGSFFLYSKLTVDKSRWQQGNVFSCSVMHEALHNHYTQKSLSLSPGK
light: SYVLTQPASASVSPGQTARITCSGDALPKQYAYWYQQKPGQAPVLVIFKDSERPSGVPERFSGSSSGTTVTLTISGAQAEDEADYYCQSVDNSGFYQVFGGGTQLTVLRTVAAPSVFIFPPSDEQLKSGTASVVCLLNNFYPREAKVQWKVDNALQSGNSQESVTEQDSKDSTYSLSSTLTLSKADYEKHKVYACEVTHQGLSSPVTKSFNRGEC
Consider B2, for which the results for the Kd in test [3] and in test [4] were 8 nM and 16 nM, respectively.

B3: 10A1 IgG-RGY (antibody)
heavy: QVQLQQSGPVLVKPSQTLSLTCAISGDSISSDTTAWSWIRRSPSRGLEWLGWTYYRSKWFNYYAVSVKGRVTINPDTSKNQFSLQLSSVTPEDTAVYYCARGNGNGGMDVWGQGTTVTVSSASTKGPSVFPLAPSSKSTSGGTAALGCLVKDYFPEPVTVSWNSGALTSGVHTFPAVLQSSGLYSLSSVVTVPSSSLGTQTYICNVNHKPSNTKVDKKVEPKSCDKTHTCPPCPAPEAAGGPSVFLFPPKPKDTLMISRTPEVTCVVVDVSHEDPEVKFNWYVDGVEVHNAKTKPREEQYNSTYRVVSVLTVLHQDWLNGKEYKCKVSNKALGAPIEKTISKAKGQPRRPQVYTLPPSREEMTKNQVSLTCLVKGFYPSDIAVEWESNGQPENNYKTTPPVLDSDGSFFLYSKLTVDKSRWQQGNVFSCSVMHGALHNHYTQKYLSLSPGK
light: SYVLTQPASASVSPGQTARITCSGDALPKQYAYWYQQKPGQAPVLVIFKDSERPSGVPERFSGSSSGTTVTLTISGAQAEDEADYYCQSVDNSGFYQVFGGGTQLTVLRTVAAPSVFIFPPSDEQLKSGTASVVCLLNNFYPREAKVQWKVDNALQSGNSQESVTEQDSKDSTYSLSSTLTLSKADYEKHKVYACEVTHQGLSSPVTKSFNRGEC
Turning to B3, the Kd in test [3] is 0.5 nM; in test [4], 6.2 nM.

B4: 10A1 IgG-LALA (antibody)
heavy: QVQLQQSGPVLVKPSQTLSLTCAISGDSISSDTTAWSWIRRSPSRGLEWLGWTYYRSKWFNYYAVSVKGRVTINPDTSKNQFSLQLSSVTPEDTAVYYCARGNGNGGMDVWGQGTTVTVSSASTKGPSVFPLAPSSKSTSGGTAALGCLVKDYFPEPVTVSWNSGALTSGVHTFPAVLQSSGLYSLSSVVTVPSSSLGTQTYICNVNHKPSNTKVDKKVEPKSCDKTHTCPPCPAPEAAGGPSVFLFPPKPKDTLMISRTPEVTCVVVDVSHEDPEVKFNWYVDGVEVHNAKTKPREEQYNSTYRVVSVLTVLHQDWLNGKEYKCKVSNKALGAPIEKTISKAKGQPREPQVYTLPPSREEMTKNQVSLTCLVKGFYPSDIAVEWESNGQPENNYKTTPPVLDSDGSFFLYSKLTVDKSRWQQGNVFSCSVMHEALHNHYTQKSLSLSPGK
light: SYVLTQPASASVSPGQTARITCSGDALPKQYAYWYQQKPGQAPVLVIFKDSERPSGVPERFSGSSSGTTVTLTISGAQAEDEADYYCQSVDNSGFYQVFGGGTQLTVLRTVAAPSVFIFPPSDEQLKSGTASVVCLLNNFYPREAKVQWKVDNALQSGNSQESVTEQDSKDSTYSLSSTLTLSKADYEKHKVYACEVTHQGLSSPVTKSFNRGEC
On to B4, for which the Kd stood at 2.7 nM in test [3] and 5.4 nM in test [4].

B5: 10A1 IgG-HCscFv (antibody)
heavy: QVQLQQSGPVLVKPSQTLSLTCAISGDSISSDTTAWSWIRRSPSRGLEWLGWTYYRSKWFNYYAVSVKGRVTINPDTSKNQFSLQLSSVTPEDTAVYYCARGNGNGGMDVWGQGTTVTVSSASTKGPSVFPLAPSSKSTSGGTAALGCLVKDYFPEPVTVSWNSGALTSGVHTFPAVLQSSGLYSLSSVVTVPSSSLGTQTYICNVNHKPSNTKVDKKVEPKSCDKTHTCPPCPAPEAAGGPSVFLFPPKPKDTLMISRTPEVTCVVVDVSHEDPEVKFNWYVDGVEVHNAKTKPREEQYNSTYRVVSVLTVLHQDWLNGKEYKCKVSNKALGAPIEKTISKAKGQPREPQVYTLPPSREEMTKNQVSLTCLVKGFYPSDIAVEWESNGQPENNYKTTPPVLDSDGSFFLYSKLTVDKSRWQQGNVFSCSVMHEALHNHYTQKSLSLSPGKSSGSSGSSSSSGSSSQVQLQQSGPVLVKPSQTLSLTCAISGDSISSDTTAWSWIRRSPSRGLEWLGWTYYRSKWFNYYAVSVKGRVTINPDTSKNQFSLQLSSVTPEDTAVYYCARGNGNGGMDVWGQGTTVTVSSGSSSSSSGSSGSSSSSYVLTQPASASVSPGQTARITCSGDALPKQYAYWYQQKPGQAPVLVIFKDSERPSGVPERFSGSSSGTTVTLTISGAQAEDEADYYCQSVDNSGFYQVFGGGTQLTVL
light: SYVLTQPASASVSPGQTARITCSGDALPKQYAYWYQQKPGQAPVLVIFKDSERPSGVPERFSGSSSGTTVTLTISGAQAEDEADYYCQSVDNSGFYQVFGGGTQLTVLRTVAAPSVFIFPPSDEQLKSGTASVVCLLNNFYPREAKVQWKVDNALQSGNSQESVTEQDSKDSTYSLSSTLTLSKADYEKHKVYACEVTHQGLSSPVTKSFNRGEC
For the molecule B5, the Kd in test [3] was 1.3 nM; in test [4], 5.3 nM.

B6: clone 10 in the scFv-Fc format (Fc fusion)
chain: QVQLQQSGPVLVKPSQTLSLTCAISGDSVSSDTTAWSWIRQSPSRGLEWLGWTYYRSKWFNYYAVSVKSRVTINPDTSKNQFSLQLSSVTPEDTAVYYCARGNGNGGMDVWGQGTTVTVSSGILGSGGGGSGGGGSGGGGSSYVLTQPPSVSVSPGQTARITCSGDALPKQYAYWYQQKPGQAPVLVIFKDSERPSGIPERFSGSSSGTTVTLTISGVQAEDEADYYCQSADNSGFYQVFGGGTQLTVLSGSSSSLEGCKPCICTVPEVSSVFIFPPKPKDVLTITLTPKVTCVVVDISKDDPEVQFSWFVDDVEVHTAQTQPREEQFNSTFRSVSELPIMHQDWLNGKEFKCRVNSAAFPAPIEKTISKTKGRPKAPQVYTIPPPKEQMAKDKVSLTCMITDFFPEDITVEWQWNGQPAENYKNTQPIMDTDGSYFVYSKLNVQKSNWEAGNTFTCSVLHEGLHNHHTEKSLSHSPGKGGGGLNDIFEAQKIEWHESRHHHHHH
With B6, in test [5], the Kd is 14 nM.

B7: clone 22 in the scFv-Fc format (Fc fusion)
chain: QVQLQQSGPGLVKPSQTLSLTCAISGDSVSSNSAAWNWIRQSPSRGLEWLGRTYYRSKWYNDYAVSVKSRITINPDTSKNQFSLQLNSVTPEDTAVYYCARGSYGSGLVWGQGTTVTVSSGSASAPTGILGSGGGGSGGGGSGGGGSNFMLTQPHSVSESPGKTVTISCTGSSGSIASNYVQWYQQRPGSAPTTVIYEDDQRPSGVPDRFSGSLDTSSNSASLTISGLRPEDEADYYCQSYDNKDNVVFGGGTKVTVLSGSSSSLEGCKPCICTVPEVSSVFIFPPKPKDVLTITLTPKVTCVVVDISKDDPEVQFSWFVDDVEVHTAQTQPREEQFNSTFRSVSELPIMHQDWLNGKEFKCRVNSAAFPAPIEKTISKTKGRPKAPQVYTIPPPKEQMAKDKVSLTCMITDFFPEDITVEWQWNGQPAENYKNTQPIMDTDGSYFVYSKLNVQKSNWEAGNTFTCSVLHEGLHNHHTEKSLSHSPGKGGGGLNDIFEAQKIEWHESRHHHHHH
Consider B7, for which the Kd in test [5] came out at 18 nM.
